According to paper doi:10.1101/2023.11.06.565731:

Columns and labels:
[1] = target: mouse α-synuclein pre-formed fibrils (mouse) (UniProt O55042); test: other fluorescence titration
[2] = target: mouse α-synuclein type B* oligomers (mouse) (UniProt O55042); test: other fluorescence titration

“BODIPY630/650-labelled PSMα3 peptide probe P1” showed a Kd [1] of 1400 nM, a fold increase of the emission peak intensity [1] of 16 fold and a fold increase of the excitation peak intensity [1] of 7.6 fold. It also gave a fold increase of the emission peak intensity [2] of 3 fold and a fold increase of the excitation peak intensity [2] of 1.8 fold.
